Data published in the supplement of paper PMC12338614.
± gives the uncertainty stated by the source.

B1: library; numbered along this chain (parent)
chain: MEVVDPQQLGMFTEGELMSVGMDTFIHRIDSTEVIYQPRRKRAKLIGKYLMGDLLGEGSYGKVKEVLDSETLCRRAVKILKKKKLRRIPNGEANVKKEIQLLRRLRHKNVIQLVDVLYNEEKQKMYMVMEYCVCGMQEMLDSVPEKRFPVCQAHGYFCQLIDGLEYLHSQGIVHKDIKPGNLLLTTGGTLKISDLGVAEALHPFAADDTCRTSQGSPAFQPPEIANGLDTFSGFKVDIWSAGVTLYNITTGLYPFEGDNIYKLFENIGKGSYAIPGDCGPPLSDLLKGMLEYEPAKRFSIRQIRQHSWFRKKHPPAEAPVPIPPSPDTKDRWRSMTVVPYLEDLHGADEDEDLFDIEDDIIYTQDFTVPGQVPEEEASHNGQRRGLPKAVCMNGTEAAQLSTKSRAEGRAPNPARKACSASSKIRRLSACKQQ

Variants of: B1
Experiment: STK11 functional score (HeLa growth suppression), rescaled enrichment; synonymous median = 1, nonsense median = 0 (normalised score)
Conditions: with HeLa; variant type: missense
Outline: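 The functional score takes the post/pre-selection log ratio, corrects it to wild type, rescales it to synonymous and nonsense medians, and merges it over codons and replicate transfections, with error from bootstrapping. Counts came from tiled gDNA amplicons sequenced on NextSeq (~2 million reads per tile). The libraries were POPCode codon-randomised, codon-optimised STK11 integrated by Bxb1 at an AAVS1 landing pad in HeLa, three regions with three transfections each.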
For R409A, the STK11 functional score was 1.49 ± 0.2. E407L gave an STK11 functional score of 0.778 ± 0.17. Work on L285T yielded an STK11 functional score of -0.111 ± 0.11. In the case of I29E, the STK11 functional score is reported as 1.4 ± 0.7. K403T was tested, and the STK11 functional score was 1.19 ± 0.42. In the case of K403F, the STK11 functional score is reported as 1.2 ± 0.23. S271G gave an STK11 functional score of 0.976 ± 0.3. For S271W, the STK11 functional score was 0.443 ± 0.6. S271I showed an STK11 functional score of 1.15 ± 0.3. S283M gave an STK11 functional score of 1.28 ± 0.22. Variant S283Q has an STK11 functional score of 1.51 ± 0.21. In the case of C418R, the STK11 functional score is reported as 1.54 ± 0.13. Variant N181C has an STK11 functional score of -0.0246 ± 0.18. Variant N181R has an STK11 functional score of -0.0333 ± 0.096. With K178C the STK11 functional score was 0.883 ± 0.25. Work on N109K yielded an STK11 functional score of 1.14 ± 0.19. I303M showed an STK11 functional score of 0.518 ± 0.53. In the case of L140A, the STK11 functional score is reported as 0.543 ± 0.27. I360L was tested, and the STK11 functional score was 1.13 ± 0.16. In the case of Q214Y, the STK11 functional score is reported as 1.19 ± 0.31. For Q214E, the STK11 functional score was 1.36 ± 0.5. V133N gave an STK11 functional score of 1.17 ± 0.15. With D229M the STK11 functional score was 1.28 ± 0.35. Variant E396V has an STK11 functional score of 1.55 ± 0.28. E396G gave an STK11 functional score of 1.55 ± 0.14. Q137K was tested, and the STK11 functional score was 0.752 ± 0.41. Work on N266I yielded an STK11 functional score of 1.38 ± 0.35. N266M was tested, and the STK11 functional score was 0.331 ± 0.095. Work on N266G yielded an STK11 functional score of 0.477 ± 0.1. Work on M136D yielded an STK11 functional score of -0.0676 ± 0.092. Variant M392W has an STK11 functional score of 0.68 ± 0.21. M392D showed an STK11 functional score of 1.19 ± 0.45. M392S was tested, and the STK11 functional score was 1.52 ± 0.26. For E33A, the STK11 functional score was 1.32 ± 0.2. Variant E265G has an STK11 functional score of 0.962 ± 0.17. E265R showed an STK11 functional score of 1.41 ± 0.3. For K41P, the STK11 functional score was 1.58 ± 0.37. I238M gave an STK11 functional score of 0.843 ± 0.17. For I238R, the STK11 functional score was -0.17 ± 0.18. Work on M139E yielded an STK11 functional score of 0.269 ± 0.09. Work on M139W yielded an STK11 functional score of 1.27 ± 0.78. F264E gave an STK11 functional score of 1.57 ± 0.26. In the case of F264G, the STK11 functional score is reported as 1.01 ± 0.21. Variant V243G has an STK11 functional score of 0.469 ± 0.16. For T244R, the STK11 functional score was 0.00573 ± 0.1. T244K gave an STK11 functional score of 0.388 ± 0.12. For D30L, the STK11 functional score was 1.07 ± 0.12. D30Y showed an STK11 functional score of -0.0227 ± 0.33. With A295L the STK11 functional score was 0.756 ± 0.55. In the case of A295W, the STK11 functional score is reported as 1.36 ± 0.2. Work on S378R yielded an STK11 functional score of 1.16 ± 0.39. Variant G408Y has an STK11 functional score of 1.49 ± 0.16. Q170K gave an STK11 functional score of 0.664 ± 0.14. For P144G, the STK11 functional score was 1 ± 0.21. For N119V, the STK11 functional score was 0.707 ± 0.14. With G233W the STK11 functional score was 1.16 ± 0.17. Work on G233V yielded an STK11 functional score of 0.47 ± 0.11. Work on R405V yielded an STK11 functional score of 1.62 ± 0.28. Variant A218C has an STK11 functional score of 0.947 ± 0.27. G276V showed an STK11 functional score of 1.05 ± 0.19. D350H showed an STK11 functional score of 1.27 ± 0.29. With D350C the STK11 functional score was 1.51 ± 0.31. In the case of E138S, the STK11 functional score is reported as 1.26 ± 0.12. T212Q was tested, and the STK11 functional score was 1.65 ± 0.19. Variant A389F has an STK11 functional score of 1.33 ± 0.27. Variant C158M has an STK11 functional score of -0.0261 ± 0.52. Variant C158H has an STK11 functional score of 1.53 ± 0.32. S240E showed an STK11 functional score of 1.52 ± 0.24. With F219C the STK11 functional score was 0.557 ± 0.2. Work on L184Q yielded an STK11 functional score of 0.906 ± 0.2. Work on L50R yielded an STK11 functional score of 1.47 ± 0.33. P149A was tested, and the STK11 functional score was 1.18 ± 0.12. K96P showed an STK11 functional score of 0.38 ± 0.12. P179M showed an STK11 functional score of 0.544 ± 0.13. Variant P179H has an STK11 functional score of -0.0435 ± 0.096. For K81I, the STK11 functional score was 1.19 ± 0.12. Variant K81R has an STK11 functional score of 1.21 ± 0.16. Work on A318P yielded an STK11 functional score of 1.59 ± 0.26. I79V was tested, and the STK11 functional score was 0.313 ± 0.085. P315G showed an STK11 functional score of 1.29 ± 0.39. For P315S, the STK11 functional score was 1.41 ± 0.14. In the case of K312Y, the STK11 functional score is reported as 1.2 ± 0.1. In the case of T186V, the STK11 functional score is reported as 1.24 ± 0.38. Variant L263T has an STK11 functional score of 1.22 ± 0.17. In the case of L228M, the STK11 functional score is reported as 0.601 ± 0.32. Work on R333A yielded an STK11 functional score of 1.28 ± 0.17. With I88Q the STK11 functional score was -0.36 ± 0.084. In the case of I88C, the STK11 functional score is reported as 1.07 ± 0.28. With C73M the STK11 functional score was 1.7 ± 0.41. V128N was tested, and the STK11 functional score was 1.28 ± 0.32. V128P showed an STK11 functional score of -0.00512 ± 0.14. With V128W the STK11 functional score was 0.804 ± 0.43. In the case of T189C, the STK11 functional score is reported as 1.15 ± 0.55. L245K showed an STK11 functional score of 0.475 ± 0.15. T13S gave an STK11 functional score of 0.282 ± 0.092. T13R showed an STK11 functional score of 1.08 ± 0.37. Work on I35P yielded an STK11 functional score of 1.69 ± 0.16. I35D showed an STK11 functional score of 1.67 ± 0.17. Work on V320R yielded an STK11 functional score of 1.49 ± 0.17. For N393F, the STK11 functional score was 1.52 ± 0.31. Work on F231M yielded an STK11 functional score of -0.0118 ± 0.18. For A43F, the STK11 functional score was 1.23 ± 0.18. Work on D348L yielded an STK11 functional score of 1.3 ± 0.15. Variant D348P has an STK11 functional score of 1.59 ± 0.14. In the case of M335F, the STK11 functional score is reported as 1.35 ± 0.13. With M335Y the STK11 functional score was 1.32 ± 0.35. M335W gave an STK11 functional score of 0.367 ± 0.13. V95L was tested, and the STK11 functional score was 0.889 ± 0.12. For D115N, the STK11 functional score was 1.65 ± 0.37. Variant D115M has an STK11 functional score of 1.06 ± 0.73. Work on L183M yielded an STK11 functional score of -0.0817 ± 0.087. Work on L183D yielded an STK11 functional score of 0.119 ± 0.32. With T402W the STK11 functional score was 1.44 ± 0.23. For T402S, the STK11 functional score was 1.31 ± 0.18. L160W showed an STK11 functional score of 0.0949 ± 0.08. Variant G135D has an STK11 functional score of 1.06 ± 0.37. W332L gave an STK11 functional score of 1.55 ± 0.14. W332Q was tested, and the STK11 functional score was 1.55 ± 0.27. For K83W, the STK11 functional score was 1.53 ± 0.11. In the case of I161M, the STK11 functional score is reported as 1.31 ± 0.26. With K64V the STK11 functional score was 1.38 ± 0.19. N412M showed an STK11 functional score of 0.405 ± 0.69. S19A showed an STK11 functional score of 0.891 ± 0.38. S19I gave an STK11 functional score of 1.34 ± 0.41. M127N was tested, and the STK11 functional score was 1.63 ± 0.19. With M127A the STK11 functional score was 1.5 ± 0.31. L17M showed an STK11 functional score of 0.968 ± 0.24. I274N showed an STK11 functional score of 1.27 ± 0.51. D68V gave an STK11 functional score of 0.366 ± 0.1. In the case of G270I, the STK11 functional score is reported as 0.821 ± 0.36. G91M showed an STK11 functional score of 0.64 ± 0.2. In the case of K416M, the STK11 functional score is reported as 1.67 ± 0.35. Variant K416R has an STK11 functional score of 1.54 ± 0.16. K416H was tested, and the STK11 functional score was 1.42 ± 0.19. Work on P319N yielded an STK11 functional score of 1.48 ± 0.16. W308S showed an STK11 functional score of -0.303 ± 0.091. With L9H the STK11 functional score was 1.67 ± 0.15. Work on L9P yielded an STK11 functional score of 1.43 ± 0.21. T249P showed an STK11 functional score of -0.0108 ± 0.27. Q305R gave an STK11 functional score of 1.14 ± 0.47. K175W gave an STK11 functional score of 0.478 ± 0.09. For V390Q, the STK11 functional score was 1.63 ± 0.28. Work on E256R yielded an STK11 functional score of 1.48 ± 0.19. Q382D gave an STK11 functional score of 1.47 ± 0.29. Variant E293Q has an STK11 functional score of 1.23 ± 0.55. In the case of T230M, the STK11 functional score is reported as 0.971 ± 0.28. R297P showed an STK11 functional score of -0.429 ± 0.077. Y118I was tested, and the STK11 functional score was 1.32 ± 0.12. In the case of Y118M, the STK11 functional score is reported as 1.62 ± 0.21. K269G gave an STK11 functional score of 1.46 ± 0.45. K269W was tested, and the STK11 functional score was 0.728 ± 0.12. For L290H, the STK11 functional score was -0.09 ± 0.07. E317G was tested, and the STK11 functional score was 1.56 ± 0.17. Work on I224S yielded an STK11 functional score of 1.31 ± 0.28. With C132V the STK11 functional score was 0.601 ± 0.22. With C132N the STK11 functional score was 1.23 ± 0.38. Work on R40M yielded an STK11 functional score of 1.28 ± 0.43. R40I gave an STK11 functional score of 1.63 ± 0.21. In the case of G385F, the STK11 functional score is reported as 1.36 ± 0.46. With R331G the STK11 functional score was 1.41 ± 0.16. In the case of R331N, the STK11 functional score is reported as 1.35 ± 0.21. Variant T185I has an STK11 functional score of 0.548 ± 0.088. Work on G394W yielded an STK11 functional score of 1.29 ± 0.24. Variant P280T has an STK11 functional score of 1.53 ± 0.25. P294D showed an STK11 functional score of 0.708 ± 0.1. Work on P294N yielded an STK11 functional score of 0.433 ± 0.32. For P294W, the STK11 functional score was 1.36 ± 0.11.
